Test results taken from the supplement of paper PMC10567573.

B1: SLC19A2 (parent)
chain: FASLRPSEPFLTPYLLGPDKNLTE

Variants of: B1
Test: protein stability index of a GFP-peptide fusion (GPS, HEK-293T) (PSI 1-6); higher = more stable
Conditions: c terminus: a fixed tail appended
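Note: lentivirally expressed fusions sorted by FACS into six bins by GFP to DsRed ratio, PSI derived from sequencing read proportions per bin multiplied by bin number.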

| Variant | protein stability index |
| --- | --- |
| FASLRPSEPPLTPYLLGPDKNLTE | 3.15 |
| FASLRPSEPKLTPYLLGPDKNLTE | 2.72 |
| FASLRPSEPHLTPYLLGPDKNLTE | 2.61 |
| FASLRPSEPDLTPYLLGPDKNLTE | 3.28 |
| FASLRPSEPVLTPYLLGPDKNLTE | 2.67 |
| FASLRPSEPNLTPYLLGPDKNLTE | 3.22 |
| FASLRPSEPILTPYLLGPDKNLTE | 2.23 |
| FASLRPSEPWLTPYLLGPDKNLTE | 2.88 |
| FASLRPSEPQLTPYLLGPDKNLTE | 2.44 |
| FASLRPSEPRLTPYLLGPDKNLTE | 2.94 |
| FASLRPSEPALTPYLLGPDKNLTE | 2.52 |
| FASLRPSEPELTPYLLGPDKNLTE | 2.66 |
| FASLRPSEPMLTPYLLGPDKNLTE | 2.35 |
| FASLRPSEPLLTPYLLGPDKNLTE | 2.12 |
| FASLRPSEPCLTPYLLGPDKNLTE | 2.11 |
| FASLRPSEPSLTPYLLGPDKNLTE | 2.16 |
| FASLRPSEPTLTPYLLGPDKNLTE | 2.15 |
| FASLRPSEPGLTPYLLGPDKNLTE | 2.3 |
| FASLRPSEPYLTPYLLGPDKNLTE | 2.04 |
| FASLRPFEPFLTPYLLGPDKNLTE | 2.01 |
| FASLRPEEPFLTPYLLGPDKNLTE | 1.82 |
| FASLRPIEPFLTPYLLGPDKNLTE | 1.5 |
| FASLRPYEPFLTPYLLGPDKNLTE | 1.42 |
| FASLRPPEPFLTPYLLGPDKNLTE | 1.87 |

| Variant | protein stability index |
| --- | --- |
| FASLRPNEPFLTPYLLGPDKNLTE | 1.9 |
| FASLRPHEPFLTPYLLGPDKNLTE | 2.03 |
| FASLRPDEPFLTPYLLGPDKNLTE | 1.92 |
| FASLRPMEPFLTPYLLGPDKNLTE | 1.24 |
| FASLRPQEPFLTPYLLGPDKNLTE | 1.76 |
| FASLRPCEPFLTPYLLGPDKNLTE | 2.28 |
| FASLRPGEPFLTPYLLGPDKNLTE | 2.07 |
| FASLRPLEPFLTPYLLGPDKNLTE | 1.72 |
| FASLRPAEPFLTPYLLGPDKNLTE | 1.68 |
| FASLRPREPFLTPYLLGPDKNLTE | 1.71 |
| FASLRPKEPFLTPYLLGPDKNLTE | 1.98 |
| FASLRPVEPFLTPYLLGPDKNLTE | 2.27 |
| FASLRPTEPFLTPYLLGPDKNLTE | 1.75 |
| FASLRPWEPFLTPYLLGPDKNLTE | 3.01 |
| FASLRPSEPFKTPYLLGPDKNLTE | 2.03 |
| FASLRPSEPFPTPYLLGPDKNLTE | 2.03 |
| FASLRPSEPFITPYLLGPDKNLTE | 1.58 |
| FASLRPSEPFFTPYLLGPDKNLTE | 2.63 |
| FASLRPSEPFRTPYLLGPDKNLTE | 1.81 |
| FASLRPSEPFQTPYLLGPDKNLTE | 2.09 |
| FASLRPSEPFCTPYLLGPDKNLTE | 1.86 |
| FASLRPSEPFATPYLLGPDKNLTE | 2.42 |
| FASLRPSEPFHTPYLLGPDKNLTE | 2.03 |
| FASLRPSEPFTTPYLLGPDKNLTE | 1.94 |

| Variant | protein stability index |
| --- | --- |
| FASLRPSEPFNTPYLLGPDKNLTE | 1.78 |
| FASLRPSEPFMTPYLLGPDKNLTE | 2.18 |
| FASLRPSEPFDTPYLLGPDKNLTE | 2.29 |
| FASLRPSEPFSTPYLLGPDKNLTE | 1.91 |
| FASLRPSEPFGTPYLLGPDKNLTE | 2.06 |
| FASLRPSEPFETPYLLGPDKNLTE | 2.88 |
| FASLRPSQPFLTPYLLGPDKNLTE | 1.69 |
| FASLRPSDPFLTPYLLGPDKNLTE | 1.63 |
| FASLRPSKPFLTPYLLGPDKNLTE | 2.1 |
| FASLRPSTPFLTPYLLGPDKNLTE | 1.81 |
| FASLRPSPPFLTPYLLGPDKNLTE | 2.12 |
| FASLRPSLPFLTPYLLGPDKNLTE | 1.26 |
| FASLRPSSPFLTPYLLGPDKNLTE | 1.98 |
| FASLRPSIPFLTPYLLGPDKNLTE | 2.19 |
| FASLRPSMPFLTPYLLGPDKNLTE | 1.88 |
| FASLRPSYPFLTPYLLGPDKNLTE | 1.72 |
| FASLRPSFPFLTPYLLGPDKNLTE | 1.78 |
| FASLRPSNPFLTPYLLGPDKNLTE | 2.3 |
| FASLRPSHPFLTPYLLGPDKNLTE | 1.66 |
| FASLRPSAPFLTPYLLGPDKNLTE | 1.49 |
| FASLRPSGPFLTPYLLGPDKNLTE | 1.99 |
| FASLRPSVPFLTPYLLGPDKNLTE | 2.14 |
| FASLRPSWPFLTPYLLGPDKNLTE | 2.48 |
| FASLRPSRPFLTPYLLGPDKNLTE | 1.59 |

| Variant | protein stability index |
| --- | --- |
| FASLRPSCPFLTPYLLGPDKNLTE | 1.68 |
| FASLRWSEPFLTPYLLGPDKNLTE | 2.98 |
| FASLRYSEPFLTPYLLGPDKNLTE | 1.83 |
| FASLRPSEYFLTPYLLGPDKNLTE | 2.29 |
| FASLRPSEWFLTPYLLGPDKNLTE | 2.12 |
| FASLRPSEVFLTPYLLGPDKNLTE | 2.9 |
| FASLRPSELFLTPYLLGPDKNLTE | 2.5 |
| FASLRPSETFLTPYLLGPDKNLTE | 2.48 |
| FASLRPSEMFLTPYLLGPDKNLTE | 2.37 |
| FASLRPSENFLTPYLLGPDKNLTE | 2.52 |
| FASLRPSERFLTPYLLGPDKNLTE | 1.39 |
| FASLRPSEEFLTPYLLGPDKNLTE | 1.82 |
| FASLRPSEFFLTPYLLGPDKNLTE | 3.54 |
| FASLRPSECFLTPYLLGPDKNLTE | 2.26 |
| FASLRPSEDFLTPYLLGPDKNLTE | 2.85 |
| FASLRPSEKFLTPYLLGPDKNLTE | 1.78 |
| FASLRPSEAFLTPYLLGPDKNLTE | 2.27 |
| FASLRPSEGFLTPYLLGPDKNLTE | 2.18 |
| FASLRPSESFLTPYLLGPDKNLTE | 1.61 |
| FASLRPSEIFLTPYLLGPDKNLTE | 1.77 |
| FASLRPSEQFLTPYLLGPDKNLTE | 1.98 |
| FASLRPSEHFLTPYLLGPDKNLTE | 1.67 |
